Molecular target: T1, rhCIRP (Homo sapiens, UniProt Q14011)
T1 sequence (Q14011 1-172): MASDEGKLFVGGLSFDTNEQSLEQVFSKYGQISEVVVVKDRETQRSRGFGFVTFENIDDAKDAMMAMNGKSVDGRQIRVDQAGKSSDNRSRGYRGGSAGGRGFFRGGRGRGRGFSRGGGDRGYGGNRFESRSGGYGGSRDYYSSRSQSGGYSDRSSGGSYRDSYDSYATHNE
Test: Biacore binding of recombinant human proteins (rhCIRP and rhMFG-E8)
Details: read-out: KD between rhCIRP and rhMFG-E8

- Kd: 29 nM
B1: rhMFG-E8: recombinant human MFG-E8 (protein)
chain: LDICSKNPCHNGGLCEEISQEVRGDVFPSYTCTCLKGYAGNHCETKCVEPLGLENGNIANSQIAASSVRVTFLGLQHWVPELARLNRAGMVNAWTPSSNDDNPWIQVNLLRRMWVTGVVTQGASRLASHEYLKAFKVAYSLNGHEFDFIHDVNKKHKEFVGNWNKNAVHVNLFETPVEAQYVRLYPTSCHTACTLRFELLGCELNGCANPLGLKNNSIPDKQITASSSYKTWGLHLFSWNPSYARLDKQGNFNAWVAGSYGNDQWLQVDLGSSKEVTGIITQGARNFGSVQFVASYKVAYSNDSANWTEYQDPRTGSSKIFPGNWDNHSHKKNLFETPILARYVRILPVAWHNRIALRLELLGC

Source: US20240197828A1, “Chimeric molecule to treat sepsis and other inflammatory conditions” (THE FEINSTEIN INSTITUTES FOR MEDICAL RESEARCH, priority 2022, published 2024)
